According to patent US20220107327A1, “MULTI-TARGET CROSSLINKERS AND USES THEREOF” (The Regents of the University of California, published 2022):

How the values were obtained:
[1] = target: the molecule itself; assay: NHSF or BS2G cross-linking of purified GST; SDS-PAGE and Western blot under reducing and denatured conditions (homodimer)
[2] = target: SSB (single-stranded DNA binding protein) (UniProt P0AGE0 P0AGE0:2-178); assay: covalent crosslinking with NHQM + 365 nm UV, denaturing TBE-urea gel shift; 1.5 uM DNA, 0.2 mg/mL SSB, 37 C 30 min; no crosslink with BS3 or UV alone; details: chain copies: 4
Chain of SSB (single-stranded DNA binding protein) (P0AGE0 2-178, one chain of several): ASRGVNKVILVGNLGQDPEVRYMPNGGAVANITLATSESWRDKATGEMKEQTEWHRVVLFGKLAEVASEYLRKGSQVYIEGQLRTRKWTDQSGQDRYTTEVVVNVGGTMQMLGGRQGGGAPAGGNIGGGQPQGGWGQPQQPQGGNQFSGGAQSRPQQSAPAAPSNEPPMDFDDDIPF

Row | Binder | binding result [1] | binding result [2]
1 | E. coli wild type glutathione S-transferase (GST) (enzyme, Written as the single subunit) MKLFYKPGACSLASHITLRESGKDFTLVSVDLMKKRLENGDDYFAVNPKGQVPALLLDDGTLLTEGVAIMQYLADSVPDRQLLAPVNSISRYKTIEWLNYIATELHKGFTPLFRPDTPEEYKPTVRAQLEKKLQYVNEALKDEHWICGQRFTIADAYLFTVLRWAYAVKLNLEGLEHIAAFMQRMAERPEVQDALSAEGLKHHHHHH | binds | –
2 | 19(3x) (ssDNA) DNA: TGTAGCTGTTGATCTAAGTTGTAGCTGTTGATCTAAGTTGTAGCTGTTGATCTAAGT | – | binds
3 | ATC(4x) (ssDNA) DNA: AATTCGCCAATGACAAGACGCTGGGCGGGGCCGGATCCATCATCATCATCTAGAAGCT | – | binds
